From article PMC6530537 (2019)

Target: CK2β (Homo sapiens, UniProt P67870)
Experiment: ITC

CK2β, sequence (P67870 2-215): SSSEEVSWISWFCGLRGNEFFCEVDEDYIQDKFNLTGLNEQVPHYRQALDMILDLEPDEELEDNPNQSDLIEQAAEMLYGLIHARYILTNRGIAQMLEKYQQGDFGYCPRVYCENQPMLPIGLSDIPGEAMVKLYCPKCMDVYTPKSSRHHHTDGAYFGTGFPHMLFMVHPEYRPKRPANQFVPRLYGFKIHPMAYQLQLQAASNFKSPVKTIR

B1: CK2α (protein)
chain: MSGPVPSRARVYTDVNTHRPREYWDYESHVVEWGNQDDYQLVRKLGRGKYSEVFEAINITNNEKVVVKILKPVKKKKIKREIKILENLRGGPNIITLADIVKDPVSRTPALVFEHVNNTDFKQLYQTLTDYDIRFYMYEILKALDYCHSMGIMHRDVKPHNVMIDHEHRKLRLIDWGLAEFYHPGQEYNVRVASRYFKGPELLVDYQMYDYSLDMWSLGCMLASMIFRKEPFFHGHDNYDQLVRIAKVLGTEDLYDYIDKYNIELDPRFNDILGRHSRKRWERFVHSENQHLVSPEALDFLDKLLRYDHQSRLTAREAMEHPYFYTVVKDQARMGSSSMPGGSTPVSSANMMSGISSVPTPSPLGPLAGSPVIAAANPLGMPVPAAAGAQQ
- Kd: 9 nM
